Results on four substances are retold here after doi:10.1101/294439.

What all share (assay): SEC
(In gel filtration, larger molecules generally elute earlier.)

Experiment [1] concerns the target Piper methysticum styrylpyrone synthase 1 (PmSPS1) (kava (Piper methysticum)).
Experiment [2] addresses Piper methysticum styrylpyrone synthase 2 (PmSPS2) (kava (Piper methysticum)).
The target in experiment [3] is Piper methysticum chalcone synthase (PmCHS) (kava (Piper methysticum)).
Experiment [4] has as its target Piper methysticum kavalactone reductase 1 (PmKLR1) (kava (Piper methysticum)).

A word on the stoichiometry N: it is a count of units in the complex or per binding partner. Regarding “Piper methysticum styrylpyrone synthase 1 (PmSPS1) (enzyme)”, the stoichiometry N in experiment [1] came out at 2.

“Piper methysticum styrylpyrone synthase 2 (PmSPS2) (enzyme)” returned a stoichiometry N in experiment [2] of 2. In experiment [3], “Piper methysticum chalcone synthase (PmCHS) (enzyme)” yielded a stoichiometry N of 2. Substance “Piper methysticum kavalactone reductase 1 (PmKLR1) (enzyme)” returned a stoichiometry N in experiment [4] of 2.
